{
  "source": "paper PMC8646660",
  "about": "(EMBO Molecular Medicine, 2021)",
  "binders": {"B1": {"name": "FD20 (IgG format) (antibody, V domains shown)", "VH": "QVQLQQSGAEVKKPGSSVKVSCKASGGTFSSYAFSWVRQAPGQGLEWMGRIIPILGIANYAQKFQGRVTITADISTSTAYMALSSLRSEDTAVYYCAKVEVNIGMDDYYYYYGMDVWGQGTTVTVSS", "VL": "not shown"}},
  "target": "SARS-CoV-2 S receptor-binding domain (RBD), biotinylated (SARS-CoV-2, UniProt P0DTC2, biotin on the Avi tag (enzymatic, BirA))",
  "experiment": "cell-based or functional assay",
  "data": [
    {"binder": "B1", "values": [
      {"measurement": "neutralisation of SARS-CoV-2 pp harbouring wild-type S, IC50 (fold in brackets)", "result": 12, "unit": "nM"}
    ]}
  ]
}
